Experimental data reported in US20140147453.
Changes are numbered by the printed parent chain.

T1: MFK23 peptide (mdhFas-1-GPLGVRG-QERGDSLA) (UniProt P82198)
T1 sequence: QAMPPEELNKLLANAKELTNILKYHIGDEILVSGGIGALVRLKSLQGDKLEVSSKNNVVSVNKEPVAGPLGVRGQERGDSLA

T2: MFK25 peptide (mdhFas-1-GPLGIAG-QERGDSLA) (UniProt P82198)
T2 sequence: T1 sequence with V72I, R73A

T3: MFK24 peptide (mdhFas-1-GPQGIAG-QERGDSLA) (UniProt P82198)
T3 sequence: T1 sequence with L70Q, V72I, R73A

T4: MFK24 peptide (mdhFas-1-GPQGIAG-QERGDSLA), P82198
T4 chain: T1 sequence with L70Q, V72I, R73A

B1: cathepsin K (enzyme, UniProt P43235 115-329, looked up, species assumed)
Cathepsin K: APDSVDYRKKGYVTPVKNQGQCGSCWAFSSVGALEGQLKKKTGKLLNLSPQNLVDCVSENDGCGGGYMTNAFQYVQKNRGIDSEDAYPYVGQEESCMYNPTGKAAKCRGYREIPEGNEKALKRAVARVGPVSVAIDASLTSFQFYSKGVYYDESCNSDNLNHAVLAVGYGIQKGNKHWIIKNSWGENWGNKGYILMARNKNNACGIANLASFPKM
B2: MMP-1 secreted from a human Synovial membrane cell (human FLS stimulated with IL-1β) (protein)
chain: FPATLETQEQDVDLVQKYLEKYYNLKNDGRQVEKRRNSGPVVEKLKQMQEFFGLKVTGKPDAETLKVMKQPRCGVPDVAQFVLTEGNPRWEQTHLTYRIENYTPDLPRADVDHAIEKAFQLWSNVTPLTFTKVSEGQADIMISFVRGDHRDNSPFDGPGGNLAHAFQPGPGIGGDAHFDEDERWTNNFREYNLHRVAAHELGHSLGLSHSTDIGALMYPSYTFSGDVQLAQDDIDGIQAIYGRSQNPVQPIGPQTPKACDSKLTFDAITTIRGEVMFFKDRFYMRTNPFYPEVELNFISVFWPQLPNGLEAAYEFADRDEVRFFKGNKYWAVQGQNVLHGYPKDIYSSFGFPRTVKHIDAALSEENTGKTYFFVANKYWRYDEYKRSMDPGYPKMIAHDFPGIGHKVDAVFMKDGFFYFFHGTRQYKFDPKTKRILTLQKANSWFNCRKN

Tests used:
[1] = biological target: T1, MFK23 peptide (mdhFas-1-GPLGVRG-QERGDSLA)
[2] = biological target: T2, MFK25 peptide (mdhFas-1-GPLGIAG-QERGDSLA)
[3] = biological target: T3, MFK24 peptide (mdhFas-1-GPQGIAG-QERGDSLA)
[4] = biological target: T4, MFK24 peptide …

Molecule | enzymatic digestion test (immunoblot with anti-Histidine or anti-Bigh3) [1] | enzymatic digestion test (immunoblot with anti-Histidine or anti-Bigh3) [2] | enzymatic digestion test (immunoblot with anti-Histidine or anti-Bigh3) [3] | culture analysis of enzymatic digestion (human FLS + IL-1β, 1 uM peptide, 3 and 6 hours; immunoblot anti-histidine versus anti-βig-h3) [4]
cathepsin D | MFK23 was not cleaved through treatment with cathepsin K, L or D | MFK25 was not cleaved through treatment with cathepsin K, L or D |  | 
MMP-3 (matrix metalloproteinase 3) |  | MFK25 was concentration-dependently cleaved through treatment with MMP-1, MMP-2 and MMP-3, and especially, well cleaved by MMP-1 and MMP-3 |  | 
cathepsin L | MFK23 was not cleaved through treatment with cathepsin K, L or D | MFK25 was not cleaved through treatment with cathepsin K, L or D |  | 
MMP-1 (matrix metalloproteinase 1) |  | MFK25 was concentration-dependently cleaved through treatment with MMP-1, MMP-2 and MMP-3, and especially, well cleaved by MMP-1 and MMP-3 | MFK24 was concentration-dependently cleaved through treatment with MMP-1 | 
MMP-2 (matrix metalloproteinase 2) | MFK23 was concentration-dependently cleaved through treatment with MMP-2 | MFK25 was concentration-dependently cleaved through treatment with MMP-1, MMP-2 and MMP-3 |  | 
B1 | MFK23 was not cleaved through treatment with cathepsin K, L or D | MFK25 was not cleaved through treatment with cathepsin K, L or D |  | 
B2 |  |  |  | in the use of the anti-histidine antibody, MFK24 was measured in a smaller amount than that in the use of the anti-βig-h3 antibody
